Consider three molecules from US20090041679A1.

For assay [1], the target named is purified H5N1 HA (influenza A virus H5N1).
Assay [2] has the same target. The source holds these as a separate data set.

Like-named read-outs stand apart in the source and are kept apart here.

B1: BF1-10 (antibody, V domains shown)
VH: QVQLQESGPGLVKPSQTLSLTCAVSGGSISSRGYYWSWIRQPPGKGLEWIGYIFYTGGTDYNPSLKSRITISRDTPKNQISLNLSSVTAADTAVYYCARVVDGSSGYHHYYFDYWGQGTLVTVSS
VL: DIQMTQSPASLAVSLGQRATISYRASKSVSTSGYSYMHWNQQKPGQPPRLLIYLVSNLESGVPARFSGSGSGTDFTLNIHPVEEEDAATYYCQHIRELTRSEGGPSWRSN
By Kd is commonly meant the equilibrium constant for the complex coming apart. On to B1, for which the results for the Kd in assay [1] and in assay [2] were 10 to 50 nM and 10.8 nM, respectively.

B2: BF1-19 (antibody, V domains shown)
VH: QVQLQESGPGLVKPSETLSLTCTVSGSSMRTHYWTWIRQPPGKGLEWIGNIYYSGSTDYNPSLKSRVTISVDTSKNQFSLKLSSVTAADTAVYFCARTKHFDILPGGVFDMWGRGTTVSS
VL: DIVMTQSPASLAVSLGQRATISYRASKSVSTSGYSYMHWNQQKPGQPPRLLIYLVSNLESGVPARFSGSGSGTDFTLNIHPVEEEDAATYYCQHIRELTRSEGGPKWISN
Consider B2, for which the Kd in assay [1] was 10 to 50 nM; in assay [2], 48.2 nM.

B3: BF1-1 (antibody, V domains shown)
VH: EVQLVQSGPGLVKPSETLSLTCTVSGSSMRTHYWTWIRQPPGKGLEWIGNIYYSGSTDYNPSLKSRVTISVDTSKNQFSLKLSSVTAADTAVYFCARTKHFDILPGGVFDMWGRGTTVTVSS
VL: SYELTQLPSVSVSPGQTATITCSGDRLGDKYACWYQQKPGQSPVLVIFQDTKRPSGIPERFSGSNSGNTATLTISGTQAMDEADYYCQAWDSNIGVFGGGTKLTVL
In the case of B3, the Kd in assay [2] was found to be 20.3 nM.
